assay: soluble on expression in E. coli; label from the status in PepcDB or PDB records

Sequence | soluble on expression in E. coli
MAHHHHHHMDWVKVMNLIYASRDVDATTLAFNAAMSAVEKKGCLKSMLEVFEIMKKKNIKPDLVSYKLLLRLCANYHLGEHAEILFDEMVETDKLTPTYEIYALMISCFAKVGDGHRAVEFVEKLRSDPLVGEVNNWGEAGGVSGSGSADDRQHPAWRDSFAEEATTEEGAEAEGSTYTNQFKEITKKIKHIERGSSKIQYSEYANVIFACNMSNLPEQGIKYFEELLNTGKYMPSTLLLESIFDLLAKNGNYEKCLDYYNKLKDDPNFKKAINVNILNNILKALSVQGKINIIEDLWKNEFDELMLTPNEISYGYMLKVYSIVDDYEKAFKLFKEMQMKKMLSNKNIIPFVYTINAFKNCGIYNYAIYVLRVAKLLGVSSEDLLKLYNDAMVACVNAKKYDVVISLYAELITMQEKGAPSLEISISTLGFVLLAFRELDMREDFTNLKNLIIQKNYKLTPLCGQLVSEQPH | not soluble
MAHHHHHHMEKKKKESTIKISLNINTKFNESYLDEQNDIINEALIKNNNKEIIHSLNLIENIRQGTFDYKDLREVYFMNDNDLFSMLNDKKASEEKGKGKEDAHNNNNIDNKICNNDKVGDKNKKLSNNNNNNGNDLNIQIEGDQNYNFNKNNETNIFVLDNDVDKVCIIRFPFSVSKDIKKYLLNKNLDMVIQPTTLLNSRFFLIHFKNINKKFHGILLELSTHIEIHKTLDRNNLYKSNDVSQMIYVYEHNTNSKELLKKFINNNFELCGGISKKLNHFIFQNHTKLFKYHDIYFAEKLIYEYLNTPYYDYFDLYVKTLNEMHNHIIMEKENNNKQNEIVDETTDLAAILGSLDNSYNIMNLIEKQDGDIDFEALLNYDIEKENYESDVSDLLLGGTYYLQKK | not soluble
MAHHHHHHMEMGGDIVGNIMMLELETFSDEEAAYLTSPDAPHSHIVDEVVEALFENVCTAPRRCSWNTPSVRPEWKEEFRFAGEWWLSMRVLPATVNPNEYHPPLIPFLLRNVQTENQFIADLALHMRQRSSVLSLLHMDHISITPDRASVLLFEGILRNEAQNLECLSLSFCEVGAATLLLILCGLNQCRSIQPQLRYLNLSYNWIDASCSNMMAMLLERTSIRRLSLHGNRFGGSDITSFYDFLLQGCSLLEELDLSYTALTCAEVCALISCLPRMRNLEVLLLDGVEVPDNKAAALSTAIRKSNLIHVSLKGIIACNGEAYLHRIHKACQRNRAARDFLKDRSTLRYFSEGGSFFEAFARRTCEMQRLDDRALPVTYRPFVTNDPSLLPAKNL | not soluble
MAHHHHHHMEMHATHVAACSLRRLRSSAVTSRVMTSTHLSLPCRLKSYVLKFLRGQLPEDLKDLNGALGCLYGTLPDVDEFGQFVIAPEIVERFHQLGYIKLPRPVLDAQQVDKLADEVNELANNVEHHPKTEKLYATSLANLTEGPLFYCQGQWRAAWGMHDLIYLPTITVAASQILGNSIVRLWYDEVFMKEARKGPCVPWQQNYARWQHTTPVNHVTVMIALDTMNKDRGAPCLVPGSHRWREGGLLPSVPYDPAKDEAQQLNTIWEITNEEESEMLMDTPPATVDMKRGEALLIHPLTLFATHGNRSLDAVRCCFIHYMGGKTYATQNGPLLPHTTQFQAGAMIQGPFYPVVFDPAMTEELAMLPGESAAQKDITEEV | soluble
MAHHHHHHMENIENIENIEKIHLTDDGGVIKTILRKGNEGEENVPKKGNEVTVHYIGKLESDGSIFDSSRQRDVPFKFHLGNGEVIKGWDICVASMKKNEKCLVRLDSKYGYGKEGCGETIPGNSVLIFEIELLSFKEAKKNIYDYTDEEKIQAAFELKDEGNEFFKKNEINEAIAKYKEALDYFMHTDEWEDELLEKKKNIQIICNLNLSTCYNKNKDYPNAIEHASKVLKLDKNNVKGLYKLGVANMNFGFLEEAKINLYKAASLNPKNLDIRNSYELCIAKLKEARKKDQITFG | soluble
MAHHHHHHMENVAKLQRQNASLKDRVSALEEQLAGATSSLARTGDCEQQISLLIERLGKEKERHKAVAEERNQLKDHLQDLEEEVEEYRTREEGWISGQERQQENEIAAQQRIAQLENDMRSCNAIVDNLTTQLTEAKHLNGVLQNQVKELKVSYSAQLDTVKESSSETVDQLRQEVEQLRSSLQNLSTEYDTRTAELEREVQNANMHAHQAEARLSEMALGSVNTLQDLRSELEDSQRSSATWKAEAQKARHEYTTLLEQYASLKRSRAAAEADLRDRLSYESNTVSALRKGIREWEDRYLALQESVGATQTEIEEQRKTIMQLEATIQKLKASGSDMLSPSQSEVVVSTNAPPVKASFSEPSLSGLPLDEILGRRLMPAPPLNPFMSMERPAWSDSRDRKTRERLEQEVVRQSAELERVRAAVADAEVWKAKYDRLQEEHDLLLQLYGQLEEDVSALRKNGAGILSADAAATSSTSGSVSAAAVP | soluble
MAHHHHHHMFFRTCCRLMVRPTALQRCKSVNSVTLVGVVHDIQSGFVYEDAVTQFTLTTTSIDTTHPTQEVVVEKDHHTIRCFGELFSAEVKQKVKEGNVVCVNGRLRLSPQLEPSCNKHFYFPYIQVQPPHGQVAVIHGDRRNTPASVNPTAEEIPAESESGTTSKTS | not soluble
MAHHHHHHMFHGFPDVQIAPRDTVISEEFHLHDKEGRMGTLLQPMAQRMRISFSALTCLGSYAQNATCHYALFGRLCGVQLNETIEVTNVLPPVINPRPPEDETPEQREKRLLAQQREERQMYERMGKMFFKEELDSYHVGYFAICSAYTNAPYSVRTVQQLAQLALDGNPSVLVVYDPFRTSLMGKLYLRAFVPTREYVEFYTRLTDKRNILRENRLMRECNVGKGGVLREVKVEVDVDEYQLLCLSGFNVAPLSSTCRTLHSEVMTDYMAALIESVRHNADELSRGLHSESYFSQKEESYGPLGQRIDTLLKLMQLREQTQHLESLCDGVLLNTSLLRDL | soluble
MAHHHHHHMFSPVYEDVSGLFGHPMPISGFGPSTELQFPQTSYMTTTTNAPQTPTQQQQQQLAGRATVYSLVDASGVQLHRQAAPPQQIPMSSVPFGAFDGASIVPYEVFMQHQQQQQLAAAGKPTAVHAQDGVKYYLSSSTGAPVMASAGPAATTQANIMQMQQHGGTLYTLESNGTTTALTSTPPAGGLFSGAAAANGAPPSGEYPFYAAATGFLSSGPLGMAPATVGSASVTPYAIQGHMPSASPRARGAVNRSPAATIAGNQHHSNSGNNSSSASTRRENQATLHEM | not soluble
MAHHHHHHMFYMFLTRNDHQDRRRESPPPTPKKHGASFLRRIHLGEFSGRTICISWETLVEKHEWRDCAKETLLALSSNMIVYLMCHISNANEKGKVLSMVKDIPQLARHNILFCETEKGYEAFSRQIKPAILVTHDSAQAEFLSLVLPNVVLVGSSATGSAMTSISSLSELLF | not soluble
MAHHHHHHMGDDCETELVEVFGFISSGREDVRKMAVQGLAQQSKDNKELFALIASSAHGPRCIDVLLQFLHAGSVALLGDVLTVLINCAADGTCTEVLVTQKVVRRAMRLIDSVEASDHPQSLQRGLEEMTLMLLSNLTASHVSAVDDLLQVTDEDLRGFYLGKLLTYYTRFTVDDGCSVEVAVAGEQQQEDGGDDNKKLSEGDAVRSNSGGNKSEELNKTVPRDLQRWILQILLNVTRVADGQELLLEDDDWLMALSDCLSSLNPRHRLLAAQCFRNCSFQRERHPGILRSRCLRVCVERLSDGAEHIGEIEMLLAEITANLMQTEAGIGLLEELNAKKHLQASVTAGKVQADTCKFLNEHVLPLLDDIVDAYVMTSGDELD | not soluble
MAHHHHHHMGLLNTKPCSLIPAKEAFEREKKIYDKAILSFDGVNGYDVYNCSVPFTYDGKTYIFGRVEKKDEWVHSNSILFEKVGENRYRRHPTSITYNLEDPFVVKIHGEMVLGGTHVTKNGGKVSDYRCEFYHGTPLNLKYFSSGPSKMKDIRLVELADGKIGVFTHFRTEGSCLTGFATIDKIEDLTVEVINSAKLINHRPFGDAWGGPSQVYLLSSGLLGCISHHGYLLDQKDDIQLRIYACTSFVFDPATYDVYNFKIIGTKGCFPPCEPKLPHLADCAFVSGIEMRDDGKCNLYSGIGDVAEGCIVIDYPFEGYGKIVSDVAF | soluble
MAHHHHHHMGNDEIFEDLFISDTEPEELYEELGPIGVGNYGSVIKARNRQTQAIAAIKLVLLVDKDERDFVQKEISILKKCVHPNIVRYYGAHKSLSKLWIVMEYCEGGSVDMVYKVLRHPLPENLIAYVCRQVLLGLQYLHANRKIHRDIKGGNILLTRDGDVKLADFGVSTELSHSLSRRNTFVGTLLWMSPEAILELDYDEKADLWSLGITLIEMAEGAPPYIDTHPARALFMIPKVDPPTLHDKDRWSPQMALFLKRLLIKDYRLRPTATAMLNDPFVAPEKIGTKEQMKAVIDEVLAKKEAMSPQRLHGETNSSATFVERTSTDTDGEDGVTNDTCTSGRAPTGAKVPANTSPVAMEAIDITGAHLFFHDGTLLPLPMLSTHDIGFDELGLGREGIGPFAKPVPDAESLLVPPEQRSTALHGSGGLAYTMHVTQTLKSMLYYHKQLPFFREVTDTEAIKSKELQLKYGSILKSIYRL | soluble
MAHHHHHHMGPRKSNAFASGKDDGAAAGKVRKVGGNGVGGSSATNSGSHKHGGAAAATMADIYTNEERAFLESQLALFTSGGGGSGGTDFARMTKEQWFAGLPTLVSATEKLLQAAADRYQQTCRERAAAAASVNGAQNAGSLPSADSSGVGKHGTTASSSHANSCTAEGIAPSGVAGSSDHRSTPAGGTPAQFAEENAYIIAQAQQLQWYPFTYQRWVELLLEPGKYHTACNDGGLRGDAIQTSLRRCILVTYPAVEGGDVI | soluble
MAHHHHHHMGRVRHGATICSAVSDATAGKQKSACVTDVEEIPTLSFLSSKSILSETVDRTIEVCDALLNEIPKAKSIKEKHDLIDSTSNVLCLLLDPCEFVRQVHPDAEYKQHASYAFQKGYEYMSKVNSRRDLYDVVLQLDSTEGHKELSSEEIKNVAQLRRDMESNGIHLPDKLREKVTEMNIEKEELAMRFLTEQGSKNPFATLRYLLQCRYELSQLLGFESFAEQQLRGTMLENQQRVWHFLCGIAHKYRREAEKEMDIIRSNVGEVRNRQNITDDVRARVAHSLRRDAEPETAAEYFSVANCIRGIQCLCLEVFGVRLEEVQFDKDEIFNNDAKKYHVYDENKAFLGVIVLDLYASEMKYCQAGHLTLQLGCIPHQEALAKVGLKLPKRQYPVVVLTCNVGACSPVQRLPNGRFDDESTLMHPNEVTTVFHEFGHAMHTIFGQTKVQNLAGTRASIDFVETFSQLFEQFLTSHEFLQLWAHRISTREPISFDMVMKRNAAADMFKHLDMMDQVVLSAVDQTLHGPQPYTVYFPRGDQGNLGKRTLGDIGDYGRGTYNLAKVLIDICTPLSIVTPTETGVLGTLSFEHLSGYPAGYYGYLYSLSIARRIWAKKFMKDPLNRDAGRELVQKVMRHGAACNPVDVIENYLEDKLDEIDIWV | not soluble
MAHHHHHHMGTLEAQTQGPGSMDEVLLVKKLVEDAIVPTRGSKCAAGIDLYSNTNFIIQPHERFLVSTGVSVQIPHQCYGRIAPRSSLALKYGIDVGAGVIDEDYRGEIKVILFNHSNEIFNGRKGDRIAQLIIERISYCRISEVKELNTTDRGTNGFGSTGK | soluble
MAHHHHHHMGTLEAQTQGPGSMMAASHDDDTVDGLATAVRGGDRAALPRAITLVESTRPDHREQAQQLLLRLLPDSGNAHRVGITGVPGVGKSTAIEALGMHLIERGHRVAVLAVDPSSTRTGGSILGDKTRMARLAVHPNAYIRPSPTSGTLGGVTRATRETVVLLEAAGFDVILIETVGVGQSEVAVANMVDTFVLLTLARTGDQLQGIKKGVLELADIVVVNKADGEHHKEARLAARELSAAIRLIYPREALWRPPVLTMSAVEGRGLAELWDTVERHRQVLTGAGEFDARRRDQQVDWTWQLVRDAVLDRVWSNPTVRKVRSELERRVRAGELTPALAAQQILEIANLTDR | soluble
MAHHHHHHMGTLEAQTQGPGSMSVMPDHWIKERALKDGMISPFVDHKEGTGVLSYGLSSYGYDARLDNKFKIFANTHSVVVDPKNFSQDSFVDREGDFCIIPPNSFMLAKTVEYFNIPRDVMVVCVGKSTYARCGIVVNVTPLEPGWSGYVTLEFSNTSPLPVKVYAFEGACQFLFFSGKERCSKSYDEAGGKYMGQSDVTLPIIS | soluble

Reference: the DeepSol protein solubility set
